Assay results reported in the supplement of paper PMC5998384.

Columns and labels:
[1] = tested on: HeLa Kyoto; experiment: solubility change mitosis vs G1/S (difference of NP-40 vs SDS log2 ratios) (log2 ratio difference); higher = more soluble in mitosis
[2] = tested on: HeLa Kyoto; experiment: thermal stability score vs G1/S (z-score of summed log2 fold changes over temperatures); higher = more thermally stable than in G1/S
[3] = tested on: HeLa Kyoto; experiment: melting temperature (median over replicates), in situ; higher = more thermally stable
[4] = tested on: HeLa Kyoto; experiment: solubility in G1/S (NP-40 vs SDS abundance) (log2 ratio); higher = more soluble; details: cell cycle stage: G1/S
[5] = cell cycle stage: early G1 (4.5 h after nocodazole release)
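For melting temperature (median over replicates), in situ in this document: HeLa Kyoto cells synchronized by double thymidine or nocodazole block, proteins quantified by TMT10plex mass spectrometry, three independent biological replicates.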
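For solubility change mitosis vs G1/S (difference of NP-40 vs SDS log2 ratios) in this document: synchronized HeLa Kyoto cells (double thymidine block for G1/S, nocodazole release for mitosis), protein amounts in NP-40 versus SDS lysates quantified by mass spectrometry, three biological replicates.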
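For solubility in G1/S (NP-40 vs SDS abundance) in this document: HeLa Kyoto cells arrested at G1/S by double thymidine block, proteins quantified by TMT10plex mass spectrometry in mild NP-40 versus SDS extracts, three biological replicates.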
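For thermal stability score vs G1/S (z-score of summed log2 fold changes over temperatures) in this document: synchronized HeLa Kyoto cells, proteins quantified by TMT10plex mass spectrometry, three biological replicates, mitosis taken 0.5 h after nocodazole release, G1/S directly after double thymidine block.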

Sequence	solubility change mitosis (log2) [1]	thermal stability score [2, 5]	thermal stability score ([2]; cell cycle stage: mitosis)	melting temperature ([3]; cell cycle stage: G1/S) [°C]	melting temperature ([3]; cell cycle stage: mitosis) [°C]	solubility in G1/S (log2) [4]
MGKKSRVKTQKSGTGATATVSPKEILNLTSELLQKCSSPAPGPGKEWEEYVQIRTLVEKIRKKQKGLSVTFDGKREDYFPDLMKWASENGASVEGFEMVNFKEEGFGLRATRDIKAEELFLWVPRKLLMTVESAKNSVLGPLYSQDRILQAMGNIALAFHLLCERASPNSFWQPYIQTLPSEYDTPLYFEEDEVRYLQSTQAIHDVFSQYKNTARQYAYFYKVIQTHPHANKLPLKDSFTYEDYRWAVSSVMTRQNQIPTEDGSRVTLALIPLWDMCNHTNGLITTGYNLEDDRCECVALQDFRAGEQIYIFYGTRSNAEFVIHSGFFFDNNSHDRVKIKLGVSKSDRLYAMKAEVLARAGIPTSSVFALHFTEPPISAQLLAFLRVFCMTEEELKEHLLGDSAIDRIFTLGNSEFPVSWDNEVKLWTFLEDRASLLLKTYKTTIEEDKSVLKNHDLSVRAKMAIKLRLGEKEILEKAVKSAAVNREYYRQQMEEKAPLPKYEESNLGLLESSVGDSRLPLVLRNLEEEAGVQDALNIREAISKAKATENGLVNGENSIPNGTRSENESLNQESKRAVEDAKGSSSDSTAGVKE [SETD3]	-0.0646	1.13	1.44	52.8	53.5	-0.0122
MGKRGSRSQSQLLNTLTKKQKKHLRDFGEEHPFYDRVSRKEAKPQICQLSESSDSSDSESDSESEPQQVSGYHRLLATLKNVSEEEEEDEEEEEEEDSIVDDAEMNDEDGGSDVSVEEEMAAESTESPENVALSADPEGKEDGEEPPGTSQTSPEEFTDAKHESLFSLETNFLEEESGDNSSLKASQDPFLQHVNKELKEKAIQAVATNPKTTHELKWPILGQLFFSSKFQKLETFKPPKDIDLKSLHLQKPLESTWTKTNSQFLSGPQKSSSPFTPLQKELFLIMNSYRDLFYPERTALKNGEEIRHVYCLHVINHILKANAQVLGNNSRRRSQKFGVGDDDDFRDQGLTRPKVLIVVPFREAALRVVQLFISLLEGDSKKKIIVSNKKRFQGEYGSDPEERPPNLKRPEDYEAVFVGNIDDHFRIGVAILQRSIRLYAPFYSSDILIASPLGLRTIIGGEGEKKRDFDFLSSIELLIIDQADIYLMQNWEHVLHLMNHMNLLPLDSHGVDFSRVRMWSLNNWSKYYRQTLLFGALQDAQINSVFNKYCVNMQGQVAVRNVPMTGSISHVLVQLPHVFQRMEAENLASVIDARFNFFVNKILPQYRDAVMSHTLIYIPSYFDFVRLRNYFKKEELNFTHICEYTQKSGVSRARHFFLQGEKQFLLFTERFHFYKRYTIKGIRNLIFYELPTYPHFYSEICNMLRATNRGEEATWTCTVLYSKYDAQRLAAVVGVERAAQMLQSNKNVHLFITGEK [DIEXF]	0.17	0.651	2.11	47.2	49.3	-0.69
MGKSRTKRFKRPQFSPTGDCQAEAAAAANGTGGEEDDGPAAELLEKLQHPSAEVRECACAGLARLVQQRPALPGLARRDAVRRLGPLLLDPSLAVRETAAGALRNLSACGGFEVCDDMVTKDIMTPLVALLKECSAGLDSNEMSLQEKKDQNRNSIENIANETVNVLWNICECSSRAVSIFNKEGCLEIVLKYLSRFPTNVDLAISVAYCLQTVTEDNPELLKSFSATALNMLESALLSPVSSMESLLLKTLVAGTIWNLKDIIPCKSQAEIINALLKILSEVLGMDAGEMVIQMKEAETQRLKTAAEAEEILENTNGDDLIEDDEMEGISHKRRVRRKTFVSDLLPPTDKELRETIALLTAQQTALEIIVNMCCNEDPSDDEWEELSSSDESDAFMENSFSECGGQLFSPLCLSHEVHTALTNYLIPKKIFEKTAFPNSIAVDLCSRNPTWKPLIRKMNTIQCRALFCLQSLVSLLDVEHLGGAAALQTLAQHLSQLLFSQPDFAKHVDFLEAISSALRALLQTMASKNISQCMTPDQLMTLCKAGIHSSNVGVRVNVVSILGITGSVLAKEDGTLETLKNIGCFLLEVTTKDPSLVVAGEALDALFDVFADGKEAERASIQIKLLSALKEFQPVFKMKIRKEGRGNYSTDQLCVLDNVKMNLRRFIAYQETVEKRLTS [HEATR3]	-0.138	1.72	3.45	48.7	48.8	0.0745
MGKVRGLRARVHQAAVRPKGEAAPGPAPPAPEATPPPASAAGKDWAFINTNIFARTKIDPSALVQKLELDVRSVTSVRRGEAGSSARSVPSIRRGAEAKTVLPKKEKMKLRREQWLQKIEAIKLAEQKHREERRRRATVVVGDLHPLRDALPELLGLEAGSRRQARSRESNKPRPSELSRMSAAQRQQLLEEERTRFQELLASPAYRASPLVAIGQTLARQMQLEDGGQL [FAM207A]	0.342	0.13	0.618	48.3	48.5	-0.11
MGLLRIMMPPKLQLLAVVAFAVAMLFLENQIQKLEESRSKLERAIARHEVREIEQRHTMDGPRQDATLDEEEDMVIIYNRVPKTASTSFTNIAYDLCAKNKYHVLHINTTKNNPVMSLQDQVRFVKNITSWKEMKPGFYHGHVSYLDFAKFGVKKKPIYINVIRDPIERLVSYYYFLRFGDDYRPGLRRRKQGDKKTFDECVAEGGSDCAPEKLWLQIPFFCGHSSECWNVGSRWAMDQAKYNLINEYFLVGVTEELEDFIMLLEAALPRFFRGATELYRTGKKSHLRKTTEKKLPTKQTIAKLQQSDIWKMENEFYEFALEQFQFIRAHAVREKDGDLYILAQNFFYEKIYPKSN [HS2ST1]	0.0318	-0.242	0.814	55.1	55.5	0.0386
MGNAAGSAEQPAGPAAPPPKQPAPPKQPMPAAGELEERFNRALNCMNLPPDKVQLLSQYDNEKKWELICDQERFQVKNPPAAYIQKLKSYVDTGGVSRKVAADWMSNLGFKRRVQESTQVLRELETSLRTNHIGWVQEFLNEENRGLDVLLEYLAFAQCSVTYDMESTDNGASNSEKNKPLEQSVEDLSKGPPSSVPKSRHLTIKLTPAHSRKALRNSRIVSQKDDVHVCIMCLRAIMNYQSGFSLVMNHPACVNEIALSLNNKNPRTKALVLELLAAVCLVRGGHDIILAAFDNFKEVCGEQHRFEKLMEYFRNEDSNIDFMVACMQFINIVVHSVENMNFRVFLQYEFTHLGLDLYLERLRLTESDKLQVQIQAYLDNIFDVGALLEDTETKNAVLEHMEELQEQVALLTERLRDAENESMAKIAELEKQLSQARKELETLRERFSESTAMGPSRRPPEPEKAPPAAPTRPSALELKVEELEEKGLIRILRGPGDAVSIEILPVAVATPSGGDAPTPGVPTGSPSPDLAPAAEPAPGAAPPPPPPLPGLPSPQEAPPSAPPQAPPLPGSPEPPPAPPLPGDLPPPPPPPPPPPGTDGPVPPPPPPPPPPPGGPPDALGRRDSELGPGVKAKKPIQTKFRMPLLNWVALKPSQITGTVFTELNDEKVLQELDMSDFEEQFKTKSQGPSLDLSALKSKAAQKAPSKATLIEANRAKNLAITLRKGNLGAERICQAIEAYDLQALGLDFLELLMRFLPTEYERSLITRFEREQRPMEELSEEDRFMLCFSRIPRLPERMTTLTFLGNFPDTAQLLMPQLNAIIAASMSIKSSDKLRQILEIVLAFGNYMNSSKRGAAYGFRLQSLDALLEMKSTDRKQTLLHYLVKVIAEKYPQLTGFHSDLHFLDKAGSVSLDSVLADVRSLQRGLELTQREFVRQDDCMVLKEFLRANSPTMDKLLADSKTAQEAFESVVEYFGENPKTTSPGLFFSLFSRFIKAYKKAEQEVEQWKKEAAAQEAGADTPGKGEPPAPKSPPKARRPQMDLISELKRRQQKEPLIYESDRDGAIEDIITVIKTVPFTARTGKRTSRLLCEASLGEEMPL [FMNL1]	-0.0294	1.48	2.85	47.7	48.1	0.507
MGNAGSMDSQQTDFRAHNVPLKLPMPEPGELEERFAIVLNAMNLPPDKARLLRQYDNEKKWELICDQERFQVKNPPHTYIQKLKGYLDPAVTRKKFRRRVQESTQVLRELEISLRTNHIGWVREFLNEENKGLDVLVEYLSFAQYAVTFDFESVESTVESSVDKSKPWSRSIEDLHRGSNLPSPVGNSVSRSGRHSALRYNTLPSRRTLKNSRLVSKKDDVHVCIMCLRAIMNYQYGFNMVMSHPHAVNEIALSLNNKNPRTKALVLELLAAVCLVRGGHEIILSAFDNFKEVCGEKQRFEKLMEHFRNEDNNIDFMVASMQFINIVVHSVEDMNFRVHLQYEFTKLGLDEYLDKLKHTESDKLQVQIQAYLDNVFDVGALLEDAETKNAALERVEELEENISHLSEKLQDTENEAMSKIVELEKQLMQRNKELDVVREIYKDANTQVHTLRKMVKEKEEAIQRQSTLEKKIHELEKQGTIKIQKKGDGDIAILPVVASGTLSMGSEVVAGNSVGPTMGAASSGPLPPPPPPLPPSSDTPETVQNGPVTPPMPPPPPPPPPPPPPPPPPPPPPLPGPAAETVPAPPLAPPLPSAPPLPGTSSPTVVFNSGLAAVKIKKPIKTKFRMPVFNWVALKPNQINGTVFNEIDDERILEDLNVDEFEEIFKTKAQGPAIDLSSSKQKIPQKGSNKVTLLEANRAKNLAITLRKAGKTADEICKAIHVFDLKTLPVDFVECLMRFLPTENEVKVLRLYERERKPLENLSDEDRFMMQFSKIERLMQKMTIMAFIGNFAESIQMLTPQLHAIIAASVSIKSSQKLKKILEIILALGNYMNSSKRGAVYGFKLQSLDLLLDTKSTDRKQTLLHYISNVVKEKYHQVSLFYNELHYVEKAAAVSLENVLLDVKELQRGMDLTKREYTMHDHNTLLKEFILNNEGKLKKLQDDAKIAQDAFDDVVKYFGENPKTTPPSVFFPVFVRFVKAYKQAEEENELRKKQEQALMEKLLEQEALMEQQDPKSPSHKSKRQQQELIAELRRRQVKDNRHVYEGKDGAIEDIITVLKTVPFTARTAKRGSRFFCEPVLTEEYHY [FMNL2]	-0.0897	0.436	0.612	50.8	–	-0.0432
MGNGMCSRKQKRIFQTLLLLTVVFGFLYGAMLYYELQTQLRKAEAVALKYQQHQESLSAQLQVVYEHRSRLEKSLQKERLEHKKAKEDFLVYKLEAQETLNKGRQDSNSRYSALNVQHQMLKSQHEELKKQHSDLEEEHRKQGEDFSRTFNDHKQKYLQLQQEKEQELSKLKETVYNLREENRQLRKAHQDIHTQLQDVKQQHKNLLSEHEQLVVTLEDHKSALAAAQTQVAEYKQLKDTLNRIPSLRKPDPAEQQNVTQVAHSPQGYNTAREKPTREVQEVSRNNDVWQNHEAVPGRAEDTKLYAPTHKEAEFQAPPEPIQQEVERREPEEHQVEEEHRKALEEEEMEQVGQAEHLEEEHDPSPEEQDREWKEQHEQREAANLLEGHARAEVYPSAKPMIKFQSPYEEQLEQQRLAVQQVEEAQQLREHQEALHQQRLQGHLLRQQEQQQQQVAREMALQRQAELEEGRPQHQEQLRQQAHYDAMDNDIVQGAEDQGIQGEEGAYERDNQHQDEAEGDPGNRHEPREQGPREADPESEADRAAVEDINPADDPNNQGEDEFEEAEQVREENLPDENEEQKQSNQKQENTEVEEHLVMAGNPDQQEDNVDEQYQEEAEEEVQEDLTEEKKRELEHNAEETYGENDENTDDKNNDGEEQEVRDDNRPKGREEHYEEEEEEEEDGAAVAEKSHRRAEM [GOLIM4]	-0.0167	-2.18	-3.71	54	53	0.317
